Laboratory results taken from patent US20120053121A1.

Target: EGF receptor (EGFR) on PC12 cells
Assay: cell-based or functional assay

**Q.** Which results are given for “GMP-grade human mature HB-EGF produced in P. pastoris yeast (from UniProt Q99075 63-148) (ligand)”?
**A.** percentage of PC12 cells with neurite outgrowth after 3 days, HB-EGF treated: 87.8%; rate of neurite extension induced by HB-EGF in PC12 cells in the presence of AG1478 (EGF receptor kinase inhibitor): 24.3%
